Assay: label from the status in PepcDB records

Sequence | protein production
MPKIHELSETLTNQIAAGEVIERPASVVKELVENSLDAGATRIRVDFVDAGLKQIVVQDNGTGIARDQVDLAFTRHATSKISNEHDLFKVATLGFRGEALASISAVSHVEILTATKGAIGVKATFSGGNKKGQEDAAAREGTQITVRDLFFNTPARLKYLRSPRTEIMKIVDIINRLALGYPSVSFTLSNTGKVLLRTPGNGNLKQTVANVYGRHIAEKMEEFEAKDNDFKISGLMSKPELTRSTRNFVSILLNGRYIRNFQLNTAIMDGYGAKLAARHYPIIVLAIQVDPLLVDVNVHPTKQEVRLSKEKELSRLITSTISNVFIKKTEQTSAFANLENKRETLVDQLQFNLNQNVVNTARKKTPEIHENNEKPEFLAKPKKPEEEKTDYVDLNIPREDDKYIITKTWDKNVLLQQDLRPFSNTLCDSEVISSGDETLANNLPQLSYIGQIDTYIIAENNSDLFLIDQVAARRRLQFEKIYEMLLSKKIVQQGLLTPIVLEFGNLDFIQIKDKIDQIKQIGIYLEDFGQNSFIVRSYPTWIHNDVEETIRQILDGYLNLDKGKSENLFKRVAAMQAKRDISGKINLAAAEASQILIDLRKTEDPYHDADGRLVLVRMSENELKKMFKRDK | failed
MPKITVYTGKEVLQIDAKEGSSLLDILAENSLYVEAPCGGKGICGKCKVAVKKDGKPYLENITKEEKRLLTSDELQKGIRLCCNLKVFESLEVFLPHSKIGAKILSGLYTLEHHHHHH | failed
MPKKDNFSILLMGIDARPGQSMDKERSDAMVLATFNRKDKSVKLLSIPRDSYVNIPGRGYDKITHAHSLGGRDLSTETVENLLDIPVDYVMEANFSAFKEVVDELGGVPITIKEDYIVRQIKKDTKGKVNLQTGEQTLGGEEALAYVRTRKADTDLKRGERQMEVIKSIINKSKSLTSIPAYDDILDTVGKNVSMNLSLNDAIGLIPFMTSIQTVDTLQLKGSDYQPGKVYYFQLDQENLNEIKQELKQQLDVLEHHHHHH | not failed
MPKKYDEATKSKAVRLVVDHRDEYDSEYGCIRAVATRIGVGPETLRKWVRQAEIDGGERDGVTTATNRENRELKRKVAELEQTVEMLRAATTFFVRESDPRHR | failed
MPKLGMEPIRKAALVKATIVEIGRAGSLDVTVSQIAKRAGMSSALAHHYFGGKEALFIAAMRHVLSLYGAEVRGALLGAETPAARITAILQASFSATNFRREVVGAWLNFYVLAQTAPQARRLLAIYQRRLRSNLLVGLRPLAGERAADLADGLGALIDGLYLREVLKEGPPDSAAAVACARAYLNAHLKECPL | failed
MPKLLIPAIIFITLALIFYTIGVWSEHRAGILKKKHVIIFWCGLVCDTLGTYTMSRIVAAGTDKGITPTDLLIHQSTGMLAIILMLIHAVWATIVLNRGSEKAKAIFHKFSLVVWFIWLIPYFVGMYIGMTS | failed
MPKSCSASNCTNRYNNKNPEITFHRFPFSKPSVLKQWLDNIGRDDFQPRKHMVICSLHFTPDCFSGLGNRKNLLWNAVPTLFAVPTQDANQNNFRKRLKRALQSASEKWDGITPDGLPLFTEEMHEDTQDCNNNEVADCQSTKVFAAADHTYALSDACTTKARLFNILDANRWLRKRLQAKCRVIKRMKLKLKDAQRELLTLRQQIRHRHVNH | failed
MPKTLIILAHPNISQSTVHKHWSDAVRQHTDRFTVHELYAVYPQGKIDVAAEQKLIETHDSLVWQFPIYWFNCPPLLKQWLDEVLTYGWAYGSKGKALKGRKIALAVSLGAPAADYRADGAVGCSVAEVLRPFELTAKYCNADYRPPFTFHTIDSNAGYSEAARQEVERSARDYLAWLDALEHHHHHH | not failed
MPKTLIILAHPNISQSTVHKHWSDAVRQHTDRFTVHELYAVYPQGKIDVAAEQKLIETHDSLVWQFPIYWFNCPPLLKQWLDEVLTYGWAYGSKGKALKGRKIALAVSLGAPAADYRADGAVGCSVAEVLRPFELTAKYCNADYRPPFTFHTIDSNAGYSEAARQEVERSARDYLAWLDALQQTLEHHHHHH | not failed
MPKVLNVVFFFSPLIISAVITYFTWVKIETILIDFGLWLAMVTAFYIFLNFYLLLRRSKRYNIEVADEMTGFKIAAFVTSFNEDPEIVERTLLSVKDAVSNQGDVFLLDDSTDENISRRLREFCTRNDINYVHRKDRRGYKAGAINDALRRIQGYDLVAIFDADQRPVRDFFKQVLPYFKDPKIAFVQVPQNYSETFSGISTGAKYQQEPFLRIIMRGRSGRSAFSLGSGTVFRIQALREVGYLPENSITEDAAVSIKLHSKGYNSVYIDVPLIWYGEPPQDLNAYLIQQSRWALGYFQLTKDIIKADLSFLKYYDYFSGFLYWIKEGPLAIVEFISPIVFLLTEIPILRINPILYLLVYLPYLFISIGIFVAGIREETEYGLKGFFYHQCVEFLEFTAVTASFISWLLGRKRPFRVTPKGGGRLNLRILLPHIVILLLLIVSTVKGILWLISANSNFLLYYAIIVNVFWAIYHIPFFLGGILISARFKTRENLTKVVYY | failed
MPLEASELKPTAGPLEASELKPTAGPLEASELKPTAGPLEASELKPTAGPLEASELKPTAGPLEASELKPTAGPLEASELKPTAGMEKTKKIAVMSGKGGVGKTTVAVNLAVALAAEGYQVGLLDLDLHGPNVQRMLGVSLPPSEGEKIVPAKYGDSLKVFSLAMILQEGAPVIWRGPLKHKAIEQLTRDVEWGDLDYLICDLPPGTGDEALSTFQIIKPDAVIVVSTPQKVAGDDVRRAINFVKRLSGKILGLVENMSYLVCPNCGEKIYVFGKGETEKLAEEFGIPLIARIPMDPEVVSLSDEGRPAVVYKRGTVIEEEFKKIVEKVLSLLEHHHHHH | failed
MPLFKFAIDVQYRSNVRDPRGETIERVLREEKGLPVKKLRLGKSIHLEVEAENKEKAYEIVKKACEELLVNPVVEEYEVREL | not failed
MPLIVSSSIMIHAKLIYTFEDAQLDGQIVAALDVNTVANAVYAHNYGSNLVKTRNIQSLSVKEVTKLQANMLLMSPPCQPHTRQGLQRDTEDKRSDALTH | failed
MPLNRNHSELRSGKVNLKNGDPFTIALFGVDSDEKRKQQGGGERSDTIMVLSINPKEKKTELVSIPRDTKAEIAGRGTEEKINHAYAYGGPNMAVKTIEKLMNVPIDHYATIDMDGLHDMIDTLGGVDVVSNSTFTMGANHFVKGEKTHVDGDAAMDFIRSRKEDGAGGDFGRQERQQLILEAMADKMTSASSITHFNTLMNQIQKNVKTDLKLGDLNTIRTKYKDANDQVNRHQLEGEGGIQNDGLYYFIPSDASKNENTQLLRDNLNLLEHHHHHH | not failed
MPLRLPPMLPSVDTSEELDAMVRDEALLRPAAQDLCAHLGLTGARLVRFDDGSLPVYAVGGTLVLKLFPGFEAAEGVREARVLSHLWGQLPVPTPRLHAGEMYKNGWRYVLMSRLPGVSLSTAWSRIPAVEQDRIVDEAAETLAALHSVDWKPLADVVGPADWGTFLRRQRAGVLEHHRAAGLPKPWLDQIPGFLDAVRLPASGERVLLHTEFMREHLTVDPQDGWRLTGLFDFEPAMIGDPAYDFVSVGLFMSRGDPRLLRRFYQAYGRPPHDPYQLLAYTLLHVYSDLAWYLREMPAPPHPRLDALAETWFGTDG | failed
MPLVSVVMPVYNSAATLGAAVRSVLTQTHGDLELLVTDDQSSDGSMDLLREFAAQDERVLPRSSPERGGAGRARNLAIERARGDYVAFLDSDDMWLPEKTEKQLAFAAEGTAPLTFTSYFKMDADHDGESTDWVPNGRVIRAREHVDYRAMLVQDHIGALTAMYDRNVLGTRLMPEMRKRQDYALWLSIMRDGADARGLAEPLAVYRAHQAGSLSSNKLSLVEYNWALYREHENLSVPRATRALAGAVWQSLRNSRILEHHHHHH | failed
MPMHFLLFAVVCSVLVSVLLKLAPRHRIDVFQAITWNYATAALLAWLILHPALDTLRSTTAPWVALLLLAVALPSIFLVLARSVAVAGIVRTDVAQRLSLVLSLAAAFTVFGEPVNGWKLAGLALGMVAIACIVRRPRQHVATDPLPSTTGLPWLVGVWMGFALIDLLLKHIAQAGTPSLTSLTLCFALAFLLMLGVQSVRWARGARPSTRSMLAGVLLGALNFGNILCYVRAHQVLPHSPATVFASMNLGVVVLGALVGKLGFAERLGLRGWLGLALAAPAIAAIAWGIRLG | failed
MPMTLDLQPGQRLARGVARHLRAHGFVSVEEFVPARGLRVDVMGLGPKGEIWVIECKSSRADFQADAKWQGYLEWCDRYFWAVDMEFPAELLPAESGLLIADAYDAEIVRMAPEQKLAPARRKVLIQKFATHAARRLQALRDPEGHGIFE | not failed
MPNILYKIDNQYPYFTKNEKKIAQFILNYPHKVVNMTSQEIANQLETSSTSIIRLSKKVTPGGFNELKTRLSKFLPKEVTQYNVELVDNESTISLKNKLHSRSKAALSNANETINVAIIDEICDLIKNSETIFIYGYGASFVVATDLYQKLSRIGLNIQLVHETHIFTTMLATRNSNDCVIFISNNGTQSEMQSIAKVIADYHIPIATISSTSDNPVAKQSNIVLTYGQTDENEMRMGATTSLFAQMFTIDILYYRYIALNYQSSLDFITQSKIALDNYRKHLSNIDFKH | failed
MPNKVKKRHLLDYSIFIPYLILSIVGLIMVYSSTSALQVMKGFSPTSFVINQVAFWVVGLVAMFFIYKMKTSVFQNRSFIMFAIAVITVMVLAVRIPGIGKEINGARGWIEIGGFSMQPAEYLKIMVVWYLSYILARRQKTINGGMDQFKQAAGRPLMLVFVLIALVAIQPDFGNAAILTLITIVMVLASGINYMYTYLVGGLGILGSITAIQLLIMSKGKIFPARYQYIYNRFAVFKNPFLDERNLGHQLANSYYAISNGGWFGKGLGNSVQKKGFLPEAHTDFIFAITLEELGIIGGLAILGLLMFMIARIILVGVRSKKPFNSLMCIGIGTMLLIQVFINVGGITGIIPLTGITFPFLSQGGNSLLIISIAVAFVLNISADETRQKLENEYYLSLEQNQ | failed
MPNNETEASMRNTLFPTLKWSLLVLMTSLLTACGFHLRGDYDIPQELSRMSLTSYDQYSTFTRMVHRQLRLNKIDLQAPAEDLPNLHLLSESTGERTLSLYQNTRAAEIELTFVASYRVTVPELGSRTFTTSVTRSYLDNPLTALAKSVERDMIEDEMRKLAASQIVRQMARLKADFARKTLDDESIEGKGITDYRVDTQEVANPVSTEGSSELEHHHHHH | not failed
MPNNHDVNPYGIAFVPAGLPAGSALQAGDVVVSNFNAASNKQGTGTTIVKLVTDGKPVTFFQGQNLGLTTALAVLKSGYVLVGNLPTTNGATITSTGSLLVITPQGKLLSELKDPTLLDGPWDMTVIIDNGQQVTAFVSNVLNGTVARIDLNIGPNGATLLQSSHLIASGYAHRPDPAALVVGPTGLAYDAAHDMLYVASTNDNKVFAIAGAAALAHDNGPGSVIYQDSNHLRGPLALALAPNGDLVTANGDAINPDPNQSSEIVEFTPDGRFVAQMQVDPAPGSAFGLAFGLSSSGQPQFAAVNDSTNTAIVWTLRPVGGN | failed
